{"source": "paper PMC2997469", "about": "(Bioorganic & medicinal chemistry letters, 2010)", "key": {"[1]": {"molecular_target": "T1, cIAP-1 BIR3 protein", "T1 chain": "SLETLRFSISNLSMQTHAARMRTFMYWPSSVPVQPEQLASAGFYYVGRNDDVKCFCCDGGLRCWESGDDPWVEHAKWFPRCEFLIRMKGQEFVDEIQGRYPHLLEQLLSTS", "assay": "fluorescence polarisation"}, "[2]": {"molecular_target": "T2, XIAP protein containing linker-BIR2–BIR3", "T2 chain": "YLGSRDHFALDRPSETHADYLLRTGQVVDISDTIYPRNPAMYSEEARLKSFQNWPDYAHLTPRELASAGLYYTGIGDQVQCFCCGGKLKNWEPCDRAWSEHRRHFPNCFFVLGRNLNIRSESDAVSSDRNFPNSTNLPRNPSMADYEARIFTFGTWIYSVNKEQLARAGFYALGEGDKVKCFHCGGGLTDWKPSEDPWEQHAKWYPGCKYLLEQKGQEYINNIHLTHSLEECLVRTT", "assay": "fluorescence polarisation"}}, "note": "No end group written: not given here."}
{"binder": "AKPF (also: cyclopeptidic structure not given here)", "note": "[PSmac-21 (compound 1), cyclopeptidic Smac mimetic]", "values": [{"measurement": "Ki", "setting": "[1]", "result": "84 ± 9", "unit": "nM"}, {"measurement": "IC50 site 1", "setting": "[2]", "result": 1, "unit": "nM"}, {"measurement": "IC50 site 2", "setting": "[2]", "result": 481, "unit": "nM"}]}
